± gives the standard deviation.

For 72 sequences, protein stability index results are on record in the supplement of paper PMC10567573.

This data set can be described thus: protein stability index of a GFP-peptide fusion (GPS, HEK-293T) (PSI 1-6); higher = more stable.
Setting [1] is: treatment: DMSO, c terminus: a fixed tail appended.
[2] abbreviates: treatment: MLN4924 1 uM, 8 h, c terminus: a fixed tail appended.
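Note: 24-mer peptide tiles fused after GFP, lentivirally expressed, FACS-sorted into six equal bins by GFP/DsRed ratio, decoded by Illumina sequencing, PSI is the read-weighted mean bin number.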

For the sequence VGSVSVDCGPSRADRCSPKEDQAW [FBXO34], the protein stability index is, setting by setting: under setting [1], 3.66 ± 0.25; under setting [2], 4.06 ± 0.33.
The like results for SWLTRRAIRPENRAPGAGLGQDRQ [EMD] were, in that order, 3.98 ± 0.27 and 4.05 ± 0.19.
In turn, GHTPLMEAGSAGHVEVARLLLENG [ANKRD17] yielded a protein stability index under setting [1] of 4.22 ± 0.24 and a protein stability index under setting [2] of 4.17 ± 0.24.
In the case of EERFRPLTFHGLILRSQLVTLLVR [CLCN6], the protein stability index under setting [1] is 2.79 ± 0.63 and the protein stability index under setting [2] was found to be 2.51 ± 0.36.
Taken in the same sequence, the figures for TSPSPERSLLLKYARTPTLDPDTM [TRIM14] were 3.89 ± 0.66 and 4.29 ± 0.32.
The like results for RTIYHMFIALLILFILSTLVVDYI [SOAT1] were, in that order, 2.84 ± 1.7 and 2.17 ± 0.28.
Taken in the same sequence, the figures for IGSVEEQLAQLRCEMEQQSQEYQI [KRT16] were 4.82 ± 0.15 and 4.85 ± 0.18.
For AQALGYYYVLEPRVVDGTPCSPDS [ADAMTS4], the protein stability index is 2.74 ± 0.52 under setting [1] and 2.7 ± 0.38 under setting [2].
In turn, ELNAIMNKNSTDVKGCSMYVALFP [DCTD] returned a protein stability index under setting [1] of 2.71 ± 0.26 and a protein stability index under setting [2] of 2.35 ± 0.71.
Taken in the same sequence, the figures for QGGEYLPKPEPPQLVLAYDYSREV [FEM1A] were 3.93 ± 0.23 and 4.12 ± 0.28.
In turn, KLQDLIKDVLRYGEEQLKTHKKCK [FCHO1] registered a protein stability index under setting [1] of 2.42 ± 0.35 and a protein stability index under setting [2] of 2.22 ± 0.29.
Turning to QALLIRERILGPSHPDTSYYIRYR [FEM1A], the protein stability index is, setting by setting: under setting [1], 2.31 ± 0.2; under setting [2], 2.56 ± 0.33.
For the sequence SPVVVEKSNSYPHQLYTSSSHHSH [KMT2E], the protein stability index runs as follows: under setting [1], 3.76 ± 0.1; under setting [2], 3.82 ± 0.38.
The like results for GPIPSHMIHRTRKQKYFYKGGLVW [CLK3] were, in that order, 2.47 ± 0.027 and 2.45 ± 0.24.
Taken in the same sequence, the figures for ITDNFCYFRHADPTWQNSIRHNLS [FOXJ1] were 2.32 ± 0.13 and 2.43 ± 0.17.
Taken in the same sequence, the figures for RWSSDLNKHLTTHQGIKPYKCSWC [ZNF75A] were 2.55 ± 0.45 and 2.73 ± 0.49.
ESSAKSKINVNEIFYDLVRQINRK [RAP1B]: the protein stability index was 1.92 ± 0.38 under setting [1] and 1.96 ± 0.25 under setting [2].
Taken in the same sequence, the figures for SSAAMQSSCSSTSGGGGGGGGGGG [CCDC6] were 5.2 ± 0.49 and 5.16 ± 0.19.
For the sequence TDKQPLSDAWTYCISKNEWIQFNH [KLHDC2], the protein stability index was 2.5 ± 0.2 under setting [1] and 2.67 ± 0.27 under setting [2].
Consider NLANCERLIEVEDMMVMGRKPDPM [SMTNL2], for which the protein stability index came out at 3.36 ± 0.25 under setting [1] and 3.48 ± 0.31 under setting [2].
The like results for KWDGKSTTIKRKREDDKLVVECVM [FABP4] were, in that order, 2.82 ± 0.3 and 2.83 ± 0.23.
The like results for QFYMFGWTHVTLLIVVTQSHLVIH [CDS2] were, in that order, 2.85 ± 0.37 and 3.31 ± 0.59.
Sequence RHNALLSKRLLALTSSDLGCQPSR [TMEM192] yielded a protein stability index under setting [1] of 2.97 ± 0.13 and a protein stability index under setting [2] of 3.14 ± 0.38.
In the case of ERRQTLNLISLLALRVLAEQNIIP [TENT5C], the protein stability index worked out at 2.26 ± 0.88 under setting [1] and 2.15 ± 0.24 under setting [2].
Regarding MLQEQLDAINEEIRMIQEEKESTE [PPFIA4], the protein stability index amounted to 4.75 ± 0.41 under setting [1] and 4.84 ± 0.11 under setting [2].
Taken in the same sequence, the figures for RSVDVVVSSVFLLTLSIAFICCAQ [PHTF1] were 3.33 ± 0.59 and 3.35 ± 0.6.
The like results for SLASQVHAAAVNGDKGALQRLIVG [INVS] were, in that order, 3.02 ± 0.22 and 3.19 ± 0.29.
Consider DPVVNGERSGCALTDAVAPGNKGR [TCF25], for which the protein stability index was 5.21 ± 0.21 under setting [1] and 5.32 ± 0.21 under setting [2].
Taken in the same sequence, the figures for YFATFYSCTPRMNRRMVGPDVIPL [FAM189A2] were 2.72 ± 0.27 and 2.54 ± 0.55.
As to IQPGPFRAVLKYLYTGELDENERD [RHOBTB2], the protein stability index was 3.37 ± 0.53 under setting [1] and 3.43 ± 0.25 under setting [2].
TEMELLEVSQHIKMRMGGRVDFEE [CABP4] gave a protein stability index under setting [1] of 4.11 ± 0.25 and a protein stability index under setting [2] of 4.08 ± 0.099.
As for FAFSNGYLASLCMCFGPKKVKPAE [SLC29A1], the protein stability index runs as follows: under setting [1], 2 ± 0.36; under setting [2], 2.34 ± 0.21.
With GGGEGKAMYIDTEGTFRPERLLAV [RAD51], the protein stability index under setting [1] came to 2.69 ± 0.32 and the protein stability index under setting [2] was found to be 2.9 ± 0.37.
Consider VVACDFSPDGALLATASYDTRVYI [WSB1], for which the protein stability index is, setting by setting: under setting [1], 3.41 ± 0.6; under setting [2], 2.74 ± 0.83.
In turn, WPGASGSAQSLDRLGIMGAGLGA [ATP23] yielded a protein stability index (treatment: DMSO, c terminus: native) of 2.55 ± 0.26 and a protein stability index (treatment: MLN4924 1 uM, 8 h, c terminus: native) of 2.43 ± 0.37.
On to AALGSRGSCSTEVEKETQEKMTIL [ATP6V1G1], for which the protein stability index reads like this: under setting [1], 2.52 ± 0.47; under setting [2], 2.52 ± 0.55.
The like results for SHLLVAEPEKIYAMPDPTVPDSDI [ESRRG] were, in that order, 5.04 ± 0.081 and 5.08 ± 0.13.
Taken in the same sequence, the figures for LELDDNLDTERPVQKRARSGPQPR [TRIB3] were 4.9 ± 0.38 and 5.11 ± 0.18.
Taken in the same sequence, the figures for PEADCIPKEQLSTSFQWVTKWVDY [PLK2] were 3.01 ± 0.34 and 2.8 ± 0.48.
Consider DCLQFYVNSTLKELRRLFLVQDLV [RTN1], for which the protein stability index was determined as 2.99 ± 0.61 under setting [1] and 2.81 ± 0.76 under setting [2].
The like results for FEDPRDAEDAVYGRDGYDYDGYRL [SRSF1] were, in that order, 4.73 ± 0.18 and 4.8 ± 0.14.
With PDPTPPEPEEEILGSDDEEQEDPA [SRPK2], the protein stability index by setting is: under setting [1], 5.62 ± 0.33; under setting [2], 5.53 ± 0.21.
Consider QQNEDLRRMAESLRIPEGPIDQGP [FUT8], for which the protein stability index under setting [1] is 4.96 ± 0.23 and the protein stability index under setting [2] was found to be 4.94 ± 0.17.
In turn, PHMAEQTFEQAIQAASRIIRNEQF [CDC25B] displayed a protein stability index under setting [1] of 3.1 ± 0.29 and a protein stability index under setting [2] of 3.39 ± 0.17.
ARIQTLEPDNWMKEVMLFGHGTRK [RSAD1]: the protein stability index under setting [1] is 3 ± 0.5 and the protein stability index under setting [2] was 3.33 ± 0.35.
The like results for ESPRWLYSQGRLSEAEEALYLIAK [SLC22A15] were, in that order, 2.75 ± 0.21 and 2.66 ± 0.45.
Taken in the same sequence, the figures for TLREITDQEHNVAALKQAIKDKEA [TEKT4] were 4.92 ± 0.27 and 4.88 ± 0.26.
In the case of LACLHVACVVQQKDARQWFAELSV [CCNC], the protein stability index by setting is: under setting [1], 3.22 ± 0.61; under setting [2], 3.28 ± 0.45.
As to IVDFLTHHAQTSKTERINALELLG [FEM1C], the protein stability index is, setting by setting: under setting [1], 2.09 ± 0.14; under setting [2], 2.18 ± 0.23.
PATHLSPALAPVPRNSCITCPQCH [TRIM9]: the protein stability index was determined as 3.82 ± 0.39 under setting [1] and 3.87 ± 0.23 under setting [2].
Take GPMRPEQFSDEVEPATPEEGEPAT [GAGE1]: the protein stability index runs as follows: under setting [1], 5.39 ± 0.2; under setting [2], 5.266 ± 0.044.
As to EERLKLSPSPSSRVTVSRASSSRS [LMNB1], the protein stability index runs as follows: under setting [1], 4.94 ± 0.15; under setting [2], 5.03 ± 0.25.
The like results for MSERLRPRKRRRNGNEEDNHLPPQ [FAM104A] were, in that order, 5.3 ± 0.14 and 5.39 ± 0.14.
The like results for PQEPRPPKRATKPKKAPKREKSAP [CPXM2] were, in that order, 5.14 ± 0.46 and 5.42 ± 0.18.
For GLGRPTPGLSQGPGKETLESALIA [EHMT1], the protein stability index by setting is: under setting [1], 3.95 ± 0.13; under setting [2], 4.29 ± 0.22.
The like results for LKLARKAYHDPMLKLSIMSEEELT [NET1] were, in that order, 3.06 ± 0.2 and 3.14 ± 0.21.
NQLQYMQNVVVKTLWKHQFAWPFY [BRD3] gave a protein stability index under setting [1] of 3.03 ± 0.46 and a protein stability index under setting [2] of 2.64 ± 0.36.
TVLTRHSQPATPTPLQSRTSIVQA [PDLIM7]: the protein stability index runs as follows: under setting [1], 3.77 ± 0.093; under setting [2], 3.8 ± 0.28.
Taken in the same sequence, the figures for LHAQLRDLTSSSSDELSWIIELLE [ELF3] were 2.83 ± 0.22 and 2.99 ± 0.39.
The like results for ARGEDRAGPQSPSPGAPPAAKPAR [TSPAN10] were, in that order, 5.1 ± 0.56 and 5.65 ± 0.097.
As for PHHHSFYDFIVTKARGKSGPLFNF [FAM50A], the protein stability index is, setting by setting: under setting [1], 2.29 ± 0.29; under setting [2], 2.22 ± 0.16.
ELSEEGAEGRVVGRKDITSILRAP [MOSPD3] yielded a protein stability index under setting [1] of 4.82 ± 0.11 and a protein stability index under setting [2] of 4.78 ± 0.18.
The like results for RVRPTFQEITSETEDLCEKPDDEV [RIPK4] were, in that order, 5.57 ± 0.17 and 5.49 ± 0.56.
On to GVLDALHVLEGLFRTDPEAKVKLV [ZSWIM9], for which the protein stability index is 2.28 ± 0.23 under setting [1] and 2.25 ± 0.18 under setting [2].
Turning to LAMKIKVGSDDLERIEARLATLEG [PSD2], the protein stability index reads like this: under setting [1], 2.79 ± 0.42; under setting [2], 2.85 ± 0.49.
The like results for FLVTMANIGINGNHSLETCETTLF [PTGFR] were, in that order, 2.88 ± 0.88 and 2.5 ± 1.1.
In the case of NSTQADEGKTKKGVLEAPDTQVNP [FBXO34], the protein stability index is, setting by setting: under setting [1], 5.49 ± 0.19; under setting [2], 5.41 ± 0.18.
Taken in the same sequence, the figures for GLETGDWGGAPKEGSIWRGAQMEK [ZSWIM9] were 4.07 ± 0.3 and 4.45 ± 0.22.
Taken in the same sequence, the figures for YHPVKIGDLFNGRYHVIRKLGWGH [SRPK2] were 2.79 ± 0.55 and 2.24 ± 0.22.
LCNLGKERFLELAPDFVGDILWEH [ETS2] returned a protein stability index under setting [1] of 2.46 ± 0.26 and a protein stability index under setting [2] of 2.28 ± 0.61.
For FPNRTDQQCQYRWLRVLNPDLVKG [MYBL2], the protein stability index reads like this: under setting [1], 2.4 ± 0.34; under setting [2], 2.44 ± 0.53.
Taken in the same sequence, the figures for DTAEVYAAGKAEVVLGNIIKKKGW [KCNAB2] were 3.71 ± 0.21 and 3.86 ± 0.11.
